The target of assay [1] is T1, human ULBP2 (26-216) P41A on yeast (human) (UniProt Q9BZM5).
T1 sequence: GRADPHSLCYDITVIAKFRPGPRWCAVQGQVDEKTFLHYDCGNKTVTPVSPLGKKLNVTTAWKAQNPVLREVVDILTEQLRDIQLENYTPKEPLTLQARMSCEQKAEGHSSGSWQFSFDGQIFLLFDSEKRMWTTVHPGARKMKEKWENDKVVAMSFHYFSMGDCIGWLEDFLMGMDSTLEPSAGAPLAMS
Kind of assay: yeast display FACS, 1 nM.

Assay [2] addresses T2, human ULBP2 (26-216) R44A on yeast (human) (UniProt Q9BZM5).
T2 sequence: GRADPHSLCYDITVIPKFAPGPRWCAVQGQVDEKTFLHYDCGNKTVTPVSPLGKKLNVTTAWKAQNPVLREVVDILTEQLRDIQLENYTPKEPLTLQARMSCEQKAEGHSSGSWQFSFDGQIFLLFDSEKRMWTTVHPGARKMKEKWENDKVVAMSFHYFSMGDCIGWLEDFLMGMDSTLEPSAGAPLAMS
The assay is described as follows: yeast display FACS, 1 nM.

The target of assay [3] is cynomolgus ULBP2 (26-216) displayed on yeast (cynomolgus). The assay is described as follows: flow cytometry on yeast displaying ULBP2; unstained control 385.
The target in assay [4] is Cynomolgus ULBP2 (26-216) fused to hIgG1 Fc (cynomolgus; human). The assay is described as follows: SPR, biotinylated antigen on SA chip. (In SPR one partner is held on a chip, and binding of the other changes the refractive index at the surface.)

The record followed here is US20250197496A1.

One may read the Kd as the concentration at which binding is half-saturated. High values mean lower affinity, low ones higher affinity. The koff is the first-order rate constant of dissociation. What is called kon is the second-order rate constant of association. Lower therefore signals slow association.

B1: A06 (antibody, V domains shown)
VH: EVQLVQSGAEVKKPGESLKISCKGSGYAFSTSWMNWVRQMPGKGLEWMGRIYPGDGDTNYNGNFKGQVTISADKSISTAYLQWSSLKASDTAMYYCARGGELRLEAMDSWGQGTLVTVSS
VL: EIVMTQSPATLSLSPGERITLSCSASSSIHSNYLHWYQQKPGQAPRLLIYRTSNLASGIPARFSGSGSGTDFTLTISSLQPEDFAVYYCQQGFSIPFTFGQGTKLEIK
Consider B1, for which, in assay [1], the Gate 1 Freq. of Total came to 0.052%, the Gate 2 Freq. of Total is 0.32% and the Gate 3 Freq. of Total worked out at 2.61%. In assay [2], this molecule returned a Gate 1 Freq. of Total of 0.19%, a Gate 2 Freq. of Total of 0.8% and a Gate 3 Freq. of Total of 1.58%. In addition, the MFI in assay [3] was determined as 551.

B2: E12 (antibody, V domains shown)
VH: QVQLVQSGAEVKKPGASVKVSCKASGYTFTNYDINWVRQAPGQGLEWMGWIYPGDGSTYYNEKFKGRVTMTRDTSTSTVYMELSSLRSEDTAVYYCARSGDYGLYYFDYWGQGTLVTVSS
VL: EIVLTQSPATLSLSPGERATLSCRASQSIGTSIHWYQQKPGQAPRLLIYFASESISGIPARFSGSGSGTDFTLTISSLEPEDFAVYYCQQSNSWPLYTFGGGTKVEIK
In assay [1], B2 displayed a Gate 1 Freq. of Total of 0.098%, a Gate 2 Freq. of Total of 0.41% and a Gate 3 Freq. of Total of 4.73%. In assay [4], this molecule came in with a Kd of 0.534 nM, a koff of 0.00182 s⁻¹ and a kon of 3.41e+06 M⁻¹ s⁻¹. In assay [3], this molecule displayed an MFI of 11700.
